Columns and labels:
[1] = target: T1, mCherry-Vimentin with C-terminal BC2 tag (mCherry-VIMBC2T) (human, UniProt P08670 1-466); assay: immunoprecipitation from HEK293T lysate, immunoblot with anti-vimentin
T1 construct: Expressed in HEK293T or HeLa cells; also called mCherry-VimentinBC2T; not shown: mCherry fluorescent protein
Method: (§1) HEK293T cells transiently expressing eGFP, eGFPBC2T or BC2TeGFP, eGFP-PCNA, eGFP-PCNABC2T, mCherry-Vimentin, mCherry-VimentinBC2T were washed and harvested in phosphate buffered saline (PBS), snap-frozen in liquid nitrogen and stored at −20° C. Cell pellets were homogenized in 200 μl lysis buffer (10 mM Tris/Cl pH 7.5, 150 mM NaCl, 0.5% NP40, 1 μg DNaseI, 2 mM MgCl₂, 2 mM PMSF, 1× protease inhibitor mix M (Serva) by repeated pipetting for 40 min on ice. After a centrifugation step (10 min at 18.000×g) the protein concentration of each lysate was determined using a Pierce BCA Protein Assay Kit (Thermo Fisher Scientific) according to manufacturer's protocol and the protein solutions were adjusted with dilution buffer (10 mM Tris/Cl pH 7.5, 150 mM NaCl, 2 mM PMSF) to a concentration of 1 mg/ml. 2% of the supernatant were added to SDS-containing sample buffer (referred to as input). […] After a centrifugation step (2 min, 2500×g) the precleared supernatant was transferred to a new cup. 2% were added to SDS-containing sample buffer (referred to as non-bound). […] Samples were analyzed by SDS-PAGE followed by immunoblotting. Immunoblots were probed with indicated antibodies.

[2] = target: T2, recombinant human β-catenin, full-length (human, UniProt P35222 1-781, limits assumed); assay: SPR (Biacore 3000), recombinant β-catenin immobilized, five Nb concentrations, 1:1 Langmuir
T2 construct: Purified from E. coli; also called full-length β-catenin
T2 sequence (looked up): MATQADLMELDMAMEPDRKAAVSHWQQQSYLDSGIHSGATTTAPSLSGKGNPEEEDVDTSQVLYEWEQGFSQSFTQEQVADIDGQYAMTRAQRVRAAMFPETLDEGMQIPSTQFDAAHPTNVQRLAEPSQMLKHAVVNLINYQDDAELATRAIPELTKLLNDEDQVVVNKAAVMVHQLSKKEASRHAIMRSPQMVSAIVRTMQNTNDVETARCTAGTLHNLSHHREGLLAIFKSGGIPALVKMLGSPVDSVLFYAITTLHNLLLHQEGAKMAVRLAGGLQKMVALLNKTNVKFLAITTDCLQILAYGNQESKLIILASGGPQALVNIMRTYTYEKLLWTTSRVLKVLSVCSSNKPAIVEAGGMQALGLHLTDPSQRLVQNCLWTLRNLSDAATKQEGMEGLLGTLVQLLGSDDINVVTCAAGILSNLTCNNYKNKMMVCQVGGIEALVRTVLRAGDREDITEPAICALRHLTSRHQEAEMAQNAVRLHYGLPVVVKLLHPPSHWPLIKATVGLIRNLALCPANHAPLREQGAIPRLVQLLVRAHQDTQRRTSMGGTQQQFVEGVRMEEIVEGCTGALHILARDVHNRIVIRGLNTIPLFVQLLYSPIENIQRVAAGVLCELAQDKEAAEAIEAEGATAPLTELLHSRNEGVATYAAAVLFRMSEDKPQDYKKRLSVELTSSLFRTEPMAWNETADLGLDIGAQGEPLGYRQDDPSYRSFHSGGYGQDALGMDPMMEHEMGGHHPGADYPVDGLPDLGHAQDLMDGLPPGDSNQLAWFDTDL
Method: The dissociation was induced by two injections of regeneration solution of 15 μl each at the identical flow rates.

[3] = target: T3, eGFP-PCNA with C-terminal BC2 tag (eGFP-PCNABC2T) (human, UniProt P12004 1-261); assay: immunoprecipitation from HEK293T lysate, immunoblot with anti-PCNA
T3 construct: Expressed in HEK293T or HeLa cells; not shown: eGFP
Method: as §1

[4] = target: T4, EPDRKAAVSHWQQQS; assay: peptide aa 15-29 on microspheres, biotinylated BC2-Nb, streptavidin-PE
T4 construct: unphosphorylated counterpart of 1.m32; also called β-catenin peptide aa 15-29 without phosphorylated Ser23; phos Ser23 -
T4 peptide: EPDRKAAVSHWQQQS
Excerpt: As negative controls, microspheres comprising Ovalbumin and the Myc-peptide ([…]) covalently coupled to OVA-microspheres were used. […] Evaluation of the PE-signals were done in a Flexmap 3D (Luminex).

[5] = target: T5, mCherry-Vimentin (untagged) (UniProt P08670 1-466); assay: immunoprecipitation from HEK293T lysate with the BC2 nanotrap, immunoblot with anti-vimentin
T5 construct: Control without the BC2 tag; not shown: mCherry fluorescent protein
Method: as §1

T3 sequence (P12004 other isoform, or with tags, fused parts or gaps limits assumed): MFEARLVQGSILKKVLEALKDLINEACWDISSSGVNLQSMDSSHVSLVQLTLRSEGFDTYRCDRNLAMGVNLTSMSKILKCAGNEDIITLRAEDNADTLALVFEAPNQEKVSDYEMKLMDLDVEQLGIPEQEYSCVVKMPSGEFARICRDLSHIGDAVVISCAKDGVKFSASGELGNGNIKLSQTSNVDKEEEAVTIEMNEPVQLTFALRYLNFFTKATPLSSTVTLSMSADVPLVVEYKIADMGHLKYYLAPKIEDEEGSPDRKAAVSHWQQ
T1 sequence (P08670 other isoform, or with tags, fused parts or gaps): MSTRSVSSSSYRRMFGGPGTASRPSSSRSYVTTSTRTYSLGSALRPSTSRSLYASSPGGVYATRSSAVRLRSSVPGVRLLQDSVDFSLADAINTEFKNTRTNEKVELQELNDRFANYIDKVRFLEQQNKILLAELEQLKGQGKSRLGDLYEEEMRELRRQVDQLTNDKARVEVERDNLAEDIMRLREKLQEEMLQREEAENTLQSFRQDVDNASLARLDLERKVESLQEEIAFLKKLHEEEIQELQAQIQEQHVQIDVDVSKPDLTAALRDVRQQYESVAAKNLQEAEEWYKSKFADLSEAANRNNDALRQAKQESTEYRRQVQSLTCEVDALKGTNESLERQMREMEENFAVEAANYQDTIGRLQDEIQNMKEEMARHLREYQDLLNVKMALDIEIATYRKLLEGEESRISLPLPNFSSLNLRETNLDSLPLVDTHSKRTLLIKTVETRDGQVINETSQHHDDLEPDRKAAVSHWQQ
T5 sequence (P08670 whole entry): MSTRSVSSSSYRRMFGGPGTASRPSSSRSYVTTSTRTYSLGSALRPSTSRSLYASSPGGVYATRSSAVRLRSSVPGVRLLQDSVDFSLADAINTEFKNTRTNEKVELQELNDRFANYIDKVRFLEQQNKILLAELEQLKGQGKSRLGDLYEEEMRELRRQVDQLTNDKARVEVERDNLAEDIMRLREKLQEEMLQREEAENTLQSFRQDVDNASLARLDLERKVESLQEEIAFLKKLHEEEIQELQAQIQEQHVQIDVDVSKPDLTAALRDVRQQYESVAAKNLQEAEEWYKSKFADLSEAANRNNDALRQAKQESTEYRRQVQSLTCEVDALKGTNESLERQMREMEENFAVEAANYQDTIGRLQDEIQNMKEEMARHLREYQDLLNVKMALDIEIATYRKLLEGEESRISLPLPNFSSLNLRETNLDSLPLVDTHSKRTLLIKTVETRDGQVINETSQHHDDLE

B1: BC2 nanobody (VHH)
VHH: QVQLVESGGGLVQPGGSLTLSCTASGFTLDHYDIGWFRQAPGKEREGVSCINNSDDDTYYADSVKGRFTIFMDNAKDTVYLQMNSLKPEDTAIYYCAEARGCKRGRYEYDFWGQGTQVTVSS
notes: Alpaca VHH, 122 aa; also called BC2-Nb; BC2 nanotrap (BC2-Nb immobilized on agarose/Sepharose beads); not shown: C-terminal 6xHis-tag added by the pHEN6 vector
binding result [1]: binds
Kd [2]: ~3.1 nM
binding result [3]: binds
binding result [4]: binds
binding result [5]: no binding

Source: patent publication US20170137467A1 (CHROMOTEK, published 2017)
